Data taken from paper PMC4405178 (Biochemistry, 2015).

Experiments:
Assay in all cases: flow cytometry on cells
full-length Ste2p S104Y = biological target: T1, full-length Ste2p S104Y (Saccharomyces cerevisiae, UniProt D6VTK4 1-431, S104Y)
T1 sequence (looked up): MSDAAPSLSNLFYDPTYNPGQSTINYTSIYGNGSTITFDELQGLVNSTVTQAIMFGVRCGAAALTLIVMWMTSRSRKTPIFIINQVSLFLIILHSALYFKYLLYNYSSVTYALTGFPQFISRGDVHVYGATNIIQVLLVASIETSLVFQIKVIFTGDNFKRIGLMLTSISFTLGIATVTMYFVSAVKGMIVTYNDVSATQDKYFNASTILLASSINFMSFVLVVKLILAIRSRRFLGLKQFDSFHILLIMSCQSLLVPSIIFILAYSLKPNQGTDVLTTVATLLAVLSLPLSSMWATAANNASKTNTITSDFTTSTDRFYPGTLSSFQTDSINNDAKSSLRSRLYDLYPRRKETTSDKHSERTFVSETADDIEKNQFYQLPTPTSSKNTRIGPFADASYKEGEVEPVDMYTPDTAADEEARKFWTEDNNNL

[1] = biological target: T2, C-terminally truncated Ste2p V49D (Saccharomyces cerevisiae, UniProt D6VTK4 1-303, V49D)
T2 sequence (looked up): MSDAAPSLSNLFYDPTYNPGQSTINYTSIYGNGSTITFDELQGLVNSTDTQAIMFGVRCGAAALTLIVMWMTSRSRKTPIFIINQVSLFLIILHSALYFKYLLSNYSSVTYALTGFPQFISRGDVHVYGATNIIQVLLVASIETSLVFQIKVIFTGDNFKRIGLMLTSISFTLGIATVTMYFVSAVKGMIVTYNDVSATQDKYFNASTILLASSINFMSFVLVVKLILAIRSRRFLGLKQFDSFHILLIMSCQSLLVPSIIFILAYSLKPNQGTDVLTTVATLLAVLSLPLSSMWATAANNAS

[2] = biological target: T3, C-terminally truncated Ste2p H94Y (Saccharomyces cerevisiae, UniProt D6VTK4 1-303, H94Y)
T3 sequence (looked up): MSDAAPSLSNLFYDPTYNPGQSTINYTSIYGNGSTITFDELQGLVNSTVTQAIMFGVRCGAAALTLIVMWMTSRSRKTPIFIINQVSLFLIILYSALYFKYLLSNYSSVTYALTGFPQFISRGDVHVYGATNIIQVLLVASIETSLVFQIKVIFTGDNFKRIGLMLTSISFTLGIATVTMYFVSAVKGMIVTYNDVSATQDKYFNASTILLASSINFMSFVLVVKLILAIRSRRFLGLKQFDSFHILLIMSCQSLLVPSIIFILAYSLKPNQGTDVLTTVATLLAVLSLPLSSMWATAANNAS

full-length Ste2p V49D = biological target: T4, full-length Ste2p V49D (Saccharomyces cerevisiae, UniProt D6VTK4 1-431, V49D)
T4 sequence (looked up): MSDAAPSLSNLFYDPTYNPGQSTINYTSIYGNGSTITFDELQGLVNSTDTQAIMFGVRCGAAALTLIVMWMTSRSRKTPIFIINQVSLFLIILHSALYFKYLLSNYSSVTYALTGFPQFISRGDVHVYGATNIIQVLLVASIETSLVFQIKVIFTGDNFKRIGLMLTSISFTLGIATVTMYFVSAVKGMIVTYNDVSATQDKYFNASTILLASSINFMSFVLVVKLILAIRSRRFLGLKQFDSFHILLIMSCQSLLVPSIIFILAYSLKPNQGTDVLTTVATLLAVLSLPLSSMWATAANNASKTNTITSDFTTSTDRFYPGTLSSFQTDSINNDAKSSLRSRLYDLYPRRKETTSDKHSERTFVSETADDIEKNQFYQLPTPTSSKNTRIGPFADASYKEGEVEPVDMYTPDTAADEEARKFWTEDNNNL

[3] = biological target: T5, full-length wild-type Ste2p (Saccharomyces cerevisiae, UniProt D6VTK4 1-431)
T5 sequence (looked up): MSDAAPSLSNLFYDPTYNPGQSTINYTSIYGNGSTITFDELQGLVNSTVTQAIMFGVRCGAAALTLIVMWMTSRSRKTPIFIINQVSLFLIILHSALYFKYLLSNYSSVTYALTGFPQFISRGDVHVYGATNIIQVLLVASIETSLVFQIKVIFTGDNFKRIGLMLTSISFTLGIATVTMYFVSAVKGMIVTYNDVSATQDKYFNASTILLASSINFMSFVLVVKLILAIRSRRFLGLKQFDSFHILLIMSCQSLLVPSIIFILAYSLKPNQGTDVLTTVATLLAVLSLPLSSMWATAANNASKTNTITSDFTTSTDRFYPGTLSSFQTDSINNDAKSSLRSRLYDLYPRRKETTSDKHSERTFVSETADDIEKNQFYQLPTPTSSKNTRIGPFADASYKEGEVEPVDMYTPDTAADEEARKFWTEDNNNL

- Kd (full-length Ste2p S104Y): 0.002 ± 0.0007 µM
- Kd [1]: 0.035 ± 0.004 µM
- Kd [2]: 0.09 ± 0.012 µM
- Kd (full-length Ste2p V49D): 0.049 ± 0.02 µM
- Kd [3]: 0.028 ± 0.0047 µM
B1: [K^7(NBD),Nle^12] α-factor (peptide)
chain: WHWLQLKPGQPMY
modifications: NBD (7-nitrobenz-2-oxa-1,3-diazol-4-yl) conjugated to the lysine at position 7; norleucine at position 12 in place of methionine
